Biological target: HAUSP TRAF domain (HAUSP^62-205) (human)
Test: ITC, titration against HAUSP TRAF domain, 20 °C

Question: How did the n (stoichiometry) turn out when EGASTSGM (modifications not checked) [vIRF4^209-216 peptide] was run?
Answer: 0.81

Question: For EQGPADDPGEGPSTG (modifications not checked) [EBNA1^435-449 peptide], which n (stoichiometry) is on record?
Answer: 0.81

Question: LVQELQEEKPSSSHL (modifications not checked) [MDM2^137-152 peptide] was tested. Which Ka did it give?
Answer: 90000 M⁻¹
